Laboratory results as given in paper PMC8703390, “Humanization, Radiolabeling and Biodistribution Studies of an IgG1-Type Antibody Targeting Uncomplexed PSA for Theranostic Applications” (Pharmaceuticals, 2021).

B1: murine 5A10 monoclonal IgG1 (antibody, V domains shown)
VH: EVQLVESGPGILQPSQTLSLTCSFSGFSLSTTGMGVSWIRQPSGKGLEWLAHLYWDEDKRYNPSLKSRLTISEDSSRNQVFLKITSVGPADSATYYCARKGYYGYFDYWGQGTALTVSS
VL: DIVMTQSQKFMSTSVGDRVSVTCKASQNVNTDVAWYQQKPGQSPKALIFSTSYRSSGVPDRFTGSGSGTDFTLTITNVQSEDLAEYFCQQYSNYPLTFGAGTKVDLN
notes: heavy chain variable domain of m5A10; murine IgG1 heavy chain constant region; light chain variable domain of m5A10; light chain constant region; Murine IgG1; also called m5A10; parental murine antibody m5A10; source: provided by the University of Turku (Finland), prepared as previously described [8]
B2: murine 5A10 conjugated with p-SCN-Bn-CHX-A''-DTPA (antibody, V domains shown)
VH: B1 VH
VL: B1 VL
notes: as the heavy chain variable domain of m2; murine IgG1 heavy chain constant region, as in m2; as the light chain variable domain of m2; as the light chain constant region of m2; Murine IgG1; also called m5A10-DTPA; DTPA-m5A10; source: provided by the University of Turku (Finland); conjugated with p-SCN-Bn-CHX-A''-DTPA and separated from free chelate on a NAP-5 column
B3: humanized 5A10 conjugated with p-SCN-Bn-CHX-A''-DTPA (antibody, V domains shown)
VH: QVTLKESGPALVKPTQTLTLTCTFSGFSLSTTGMGVSWIRQPPGKALEWLAHIYWDDDKRYSTSLKTRLTISEDSSKNQVVLTMTNMDPVDTATYYCARKGYYGYFDYWGQGTLVTVSS
VL: DIQMTQSPSSLSASVGDRVTVTCRASQNVNTDVAWYQQKPGKAPKALIFSTSYLQSGVPSRFSGSGSGTDFTLTISSLQPEDFATYYCQQYSNYPLTFGQGTKVEIK
notes: as the heavy chain variable domain of m1; IgG1 heavy chain constant region, as in m1; as the light chain variable domain of m1; as the light chain constant region of m1; not described; IgG1; 111In labelling used the 3:1 conjugate, 177Lu labelling the 12:1 conjugate; also called h5A10-DTPA; DTPA-h5A10; source: HEK293 cells, transfected; purified by Protein G chromatography; conjugated with …
B4: humanized 5A10 IgG1 (antibody, V domains shown)
VH: B3 VH
VL: B3 VL
notes: heavy chain variable domain of h5A10; IgG1 heavy chain constant region; light chain variable domain of h5A10; light chain constant region; not described, only the plasmid name p5A10VlhDhK hints at human kappa; IgG1; Light chain constant region probably human kappa (surmised from the plasmid name and the Vk1 template); also called h5A10; humanized antibody h5A10; source: HEK293 cells, transfected; …

Target: T1, human kallikrein-2 (hK2) (Homo sapiens, UniProt P20151)
T1 construct: human kallikrein-2 (hK2), the human protein most similar to PSA; source: bought: Innovagen AB (ELISA)
T1 sequence (P20151 19-261): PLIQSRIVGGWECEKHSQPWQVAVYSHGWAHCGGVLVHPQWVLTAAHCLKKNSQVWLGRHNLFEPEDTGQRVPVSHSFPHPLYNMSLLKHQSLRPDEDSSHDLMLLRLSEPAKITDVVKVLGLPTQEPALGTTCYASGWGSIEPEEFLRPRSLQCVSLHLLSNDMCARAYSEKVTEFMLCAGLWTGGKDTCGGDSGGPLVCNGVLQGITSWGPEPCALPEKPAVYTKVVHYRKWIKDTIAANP
Experiment: SPR; control hK2 antigen; data not shown
Conditions: both partners purified

Binder	binding result
B1	no binding (tested: 100, 50, 25, 12.5 and 10 nM)
B2	no binding (tested: 100, 50, 25, 12.5 and 10 nM)
B3	no binding (tested: 100, 50, 25, 12.5 and 10 nM)

Target: T1, human kallikrein-2 (hK2)
Experiment: ELISA; wells coated with PSA or hK2 (100 uL at 1 ug/mL) overnight; h5A10 dilution series from 5 ug/mL in four-fold steps, 1 h at RT; detected with goat anti-human-AP and pNPP, absorbance at 405 nm
Conditions: both partners purified

Binder	binding result
B4	no binding (tested: 5 µg/mL)

Target: T2, prostate-specific antigen (PSA), uncomplexed free PSA (Homo sapiens, UniProt P07288)
T2 construct: prostate-specific antigen (PSA), human kallikrein; uncomplexed (free) form; also called fPSA; source: bought: Merck (ELISA)
T2 sequence (P07288 25-261, one chain of several): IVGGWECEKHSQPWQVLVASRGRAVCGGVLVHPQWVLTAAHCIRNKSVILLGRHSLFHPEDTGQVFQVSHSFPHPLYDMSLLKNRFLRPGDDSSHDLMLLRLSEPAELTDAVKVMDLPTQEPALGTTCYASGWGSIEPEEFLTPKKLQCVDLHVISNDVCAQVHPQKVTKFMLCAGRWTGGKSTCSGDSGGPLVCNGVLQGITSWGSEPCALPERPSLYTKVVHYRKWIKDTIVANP
Experiment: SPR; Biacore 2000; PSA immobilised on a CM4 chip by amine coupling (900-1000 RU); antibodies at 100, 50, 25, 12.5 and 10 nM in HSP-buffer flown at 30 uL/min; association 4-5 min, dissociation up to 480 min; bi-exponential fits to binding and dissociation curves; KD = Koff/Kon
Conditions: both partners purified

Binder	Kd	koff	kon
B1	0.022 nM	5.4e-06 s⁻¹	250000 M⁻¹ s⁻¹
B2	0.023 nM	6.3e-06 s⁻¹	270000 M⁻¹ s⁻¹
B3	0.012 nM	4.8e-06 s⁻¹	390000 M⁻¹ s⁻¹
B4	0.0077 nM	4.8e-06 s⁻¹	620000 M⁻¹ s⁻¹
